What all share (assay): multimer staining
The target of experiment [1] is T1, MART1 peptide on HLA-B*18:01 (human).
T1 peptide: EEAAGIGIL

The target in experiment [2] is T2, SSX2 peptide on HLA-A*02:01 (human).
T2 peptide: KASEKIFYV

Experiment [3] concerns the target T3, MAGE-A3 peptide on HLA-B*18:01 (human).
T3 peptide: MEVDPIGHLY

The target of experiment [4] is T4, MAGE-A1 peptide on HLA-B*07:02 (human).
T4 peptide: RVRFFFPSL

B1: B*18:01/MART125-33 TCR (TCR, V domains shown)
Valpha: GQNIDQPTEMTATEGAIVQINCTYQTSGFNGLFWYQQHAGEAPTFLSYNVLDGLEEKGRFSSFLSRSKGYSYLLLKELQMKDSASYLCAVYGGATNKLIFGTGTLLAVQP
Vbeta: NAGVMQNPRHLVRRRGQEARLRCSPMKGHSHVYWYRQLPEEGLKFMVYLQKENIIDESGMPKERFSAEFPKEGPSILRIQQVVRGDSAAYFCASSPHAGGVDEKLFFGSGTQLSVL
Consider B1, for which the binding result in experiment [1] is recorded as “recognises”.

B2: A*02:01/SSX241-49 TCR (TCR, V domains shown)
Valpha: KQEVTQIPAALSVPEGENLVLNCSFTDSAIYNLQWFRQDPGKGLTSLLLIQSSQREQTSGRLNASLDKSSGRSTLYIAASQPGDSATYLCAVEPMEYGNKLVFGAGTILRVKS
Vbeta: DGGITQSPKYLFRKEGQNVTLSCEQNLNHDAMYWYRQDPGQGLRLIYYSQIVNDFQKGDIAEGYSVSREKKESFPLTVTSAQKNPTAFYLCASSALFSGANVLTFGAGSRLTVL
For the molecule B2, the binding result in experiment [2] is listed as “recognises”.

B3: B*18:01/MAGE-A3167-176 TCR (TCR, V domains shown)
Valpha: AQKVTQAQTEISVVEKEDVTLDCVYETRDTTYYLFWYKQPPSGELVFLIRRNSFDEQNEISGRYSWNFQKSTSSFNFTITASQVVDSAVYFCALEVRSSASKIIFGSGTRLSIRP
Vbeta: GAVVSQHPSWVICKSGTSVKIECRSLDFQATTMFWYRQFPKQSLMLMATSNEGSKATYEQGVEKDKFLINHASLTLSTLTVTSAHPEDSSFYICSANPRTTLYEQYFGPGTRLTVT
B3: the binding result in experiment [3] is on record as “recognises”.

B4: B*07:02/MAGE-A1289-297 TCR (TCR, V domains shown)
Valpha: AQKVTQAQTEISVVEKEDVTLDCVYETRDTTYYLFWYKQPPSGELVFLIRRNSFDEQNEISGRYSWNFQKSTSSFNFTITASQVVDSAVYFCALSESYSGAGSYQLTFGKGTKLSVIP
Vbeta: DTGVSQNPRHKITKRGQNVTFRCDPISEHNRLYWYRQTLGQGPEFLTYFQNEAQLEKSRLLSDRFSAERPKGSFSTLEIQRTEQGDSAMYLCASSLASGSNQPQHFGDGTRLSIL
As for B4, in experiment [4], the binding result is given as “recognises”.

The values are drawn from patent publication US20220324938A1 (published 2022).
